Test [1] has as its target T1, cell-surface tissue factor on rat smooth muscle cells (Rattus norvegicus, UniProt P42533).
T1 construct: endogenous in cells; host or cells: rat vascular smooth muscle cells
T1 sequence (P42533 29-295): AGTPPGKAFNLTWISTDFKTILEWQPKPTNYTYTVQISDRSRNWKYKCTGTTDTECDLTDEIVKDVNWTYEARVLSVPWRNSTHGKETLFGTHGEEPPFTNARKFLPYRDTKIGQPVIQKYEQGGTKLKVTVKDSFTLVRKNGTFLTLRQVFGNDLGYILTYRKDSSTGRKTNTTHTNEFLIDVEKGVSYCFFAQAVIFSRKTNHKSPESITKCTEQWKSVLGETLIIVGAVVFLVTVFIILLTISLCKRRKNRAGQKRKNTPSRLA
The experiment in a line: Dose-dependent cell-surface chromogenic activity on rat smooth muscle cells. The test is classed as cell-based. As to the method: Rat vascular smooth muscle cells were plated into 96-well culture dishes at 4,000 cells per well in growth medium supplemented with 1% fetal calf serum (as in Table 4 without 10% fetal calf serum). […] The cells were incubated with the Factor VII mixtures for 2 hours at 37° C. After incubation, the cells were washed and incubated with 50 μl of 200 nM Factor X in tris buffered saline for 5 minutes at room temperature. Each well had 25 μl of 0.5 M EDTA and 25 μl of […] S-2222 (Kabi Pharmacia) added to it, and the plates were incubated for 40 minutes at room temperature. Chromogenic activity was analyzed at 405 nm in a microplate reader as described above.

Test [2] has as its system platelet accumulation at sites of arterial thrombosis. The experiment in a line: Platelet accumulation on endarterectomized baboon aorta in an extracorporeal shunt. It is filed as in vivo. From the text:
A model of aortic endarterectomy was utilized in baboons, essentially as described by Lumsden et al. (Blood 81:1762-1770 (1993)). A section of baboon aorta 1-2 cm in length was removed, inverted and scraped to remove the intima of the artery and approximately 50% of the media. The artery was reverted back to its correct orientation, cannulated on both ends and placed into an extracorporeal shunt in a baboon, thereby exposing the mechanically injured artery to baboon blood via the shunt. Just prior to opening of the shunt to the circulating blood, ^111In-labeled autologous platelets were injected intravenously into the animal. The level of platelet accumulation at the site of the injured artery was determined by real-time gamma camera imaging.
The injured arteries were measured continuously for 60 minutes. […] At a 1.0 mg/kg bolus injection, approximately 90% of platelet accumulation was inhibited at 1 hour post drug administration.

Test [3] concerns femoral artery lumen. The experiment in a line: Angiographic luminal diameter after balloon angioplasty in atherosclerotic rabbits. The test is classed as in vivo, rabbit. The method, then: The test drug delivery for the animals consisted of an initial bolus injection immediately prior to balloon angioplasty, followed by a continuous systemic infusion by osmotic pump via the internal jugular vein. The duration of the drug infusion was 3 days. The control animals received heparin, 150 U/kg IV bolus, prior to balloon angioplasty followed by saline infusion. The DEGR-FVIIa treated animals received a 1 mg/kg bolus injection followed by 50 μg/kg/hr infusion.
For the placement of the osmotic pumps for continuous systemic infusion, anesthesia was induced in the animals as described above, and maintained throughout the procedure with additional IM injections of ketamine and Xylazine. Through a midline neck incision, the right internal jugular vein was isolated by blunt dissection and the distal end ligated. A silastic tube (PE-160) was introduced into the right internal jugular vein. A subcutanecus tunnel was created to pass the silastic tube. This tube was connected with the osmotic pump. The osmotic pump was implanted subcutaneously in the back of the rabbit. The right common carotid artery was isolated by blunt dissection and the distal end ligated. Via an arteriotomy, a 5F introducer was placed and advanced to the junction of the aortic arch. Blood was drawn for determination of hemostatic parameters, drugs and cholesterol levels. Twenty milligrams of xylocain was injected intraarterially. A control aortoilibfemoral angiogram was performed via a 5F Berman catheter positioned above the aortic bifurcation using 3-4 ml renographin injected over 3 seconds by hand.
Following balloon dilatation, the angioplasty catheter was withdrawn and the Berman catheter reintroduced to a position 3 cm above the aortic bifurcation. To minimize spasm 20 mg of lidocaine was given intraarterially. A post procedure angiogram was performed as described above. A 1 cm grid was positioned at the level of the femoral artery to calculate the actual diameter. The catheter was then removed. The right carotid artery was ligated with 3-0 silk and the wound sutured by layers. […]

Consider “DEGR-Factor VIIa: Recombinant human Factor VIIa with its active site derivatized by Dansyl-L-Glu-Gly-Arg-chloromethyl Ketone (DEGRck)”, for which, in test [1] (1:1 molar ratio of DEGR-Factor VIIa:Factor VIIa), the “inhibition of the chromogenic activity” value was “approximately 95%”. Further, the OD405 entry in test [1] (DEGR-Factor VIIa 1.56 nM co-incubated with 100 nM Factor VIIa) is on record as “.116”; in test [1] (DEGR-Factor VIIa 6.25 nM co-incubated with 100 nM Factor VIIa) it was “.073”; in test [1] (DEGR-Factor VIIa 25.00 nM co-incubated with 100 nM Factor VIIa), “.026”; in test [1] (DEGR-Factor VIIa 100.00 nM co-incubated with 100 nM Factor VIIa) it was “.014”; in test [1] (DEGR-Factor VIIa .39 nM co-incubated with 100 nM Factor VIIa), “.176”. The platelet accumulation entry in test [2] (baboon, 0.005 mg/kg bolus injection) is on record as “inhibited platelet accumulation”. The “inhibition of platelet accumulation” value in test [2] (baboon, 1.0 mg/kg bolus injection, 1 hour post drug administration) is on record as “approximately 90%”. Further, in test [2] (bolus injection, arteries measured over 60 minutes, versus saline-treated controls), the “thrombus formation (platelet deposition)” value is “significantly inhibited the development of platelet-rich thrombi”. The “Mean MLD” value in test [3] (21 Day Measurement) is 1.393; in test [3] (Post-PTCA Measurement), 1.323; in test [3] (Pre-PTCA Measurement), 1.283.
